B1: BirA*-Flag-Prdx2 (natural protein, UniProt P32119 1-198, looked up)
chain: MASGNARIGKPAPDFKATAVVDGAFKEVKLSDYKGKYVVLFFYPLDFTFVCPTEIIAFSNRAEDFRKLGCEVLGVSVDSQFTHLAWINTPRKEGGLGPLNIPLLADVTRRLSEDYGVLKTDEGIAYRGLFIIDGKGVLRQITVNDLPVGRSVDEALRLVQAFQYTDEHGEVCPAGWKPGSDTIKPNVDDSKEYFSKHN
B2: His-Prdx2 (natural protein, UniProt P32119 1-198, looked up)
chain: B1 chain

Key:
[1] = biological target: the molecule itself; assay: non-reducing SDS-PAGE with western blot
native gel or EMSA = biological target: the molecule itself; assay: native gel or EMSA

| Protein | stoichiometry N [1] | stoichiometry N (native gel or EMSA) |
| --- | --- | --- |
| B1 | 2 | 10 |
| B2 | 2 | 10 |

Reference: PMC8346688 (Redox Biology, 2021)
